# Data: patent US20220064329A1 (Novo Nordisk, published 2022)
# T1: recombinant human activated Factor VII (FVIIa) (human, UniProt P08709 61-212; P08709 213-466, ten glutamate residues of the Gla domain may be gamma-carboxylated)
# T1 construct: chains tethered by a disulfide bond; also called Factor VIIa; rFVIIa
# T1 sequence 1: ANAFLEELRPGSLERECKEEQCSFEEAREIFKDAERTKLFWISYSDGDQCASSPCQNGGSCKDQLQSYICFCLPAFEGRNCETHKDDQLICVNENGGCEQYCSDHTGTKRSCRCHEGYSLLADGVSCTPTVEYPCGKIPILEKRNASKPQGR
# T1 sequence 2: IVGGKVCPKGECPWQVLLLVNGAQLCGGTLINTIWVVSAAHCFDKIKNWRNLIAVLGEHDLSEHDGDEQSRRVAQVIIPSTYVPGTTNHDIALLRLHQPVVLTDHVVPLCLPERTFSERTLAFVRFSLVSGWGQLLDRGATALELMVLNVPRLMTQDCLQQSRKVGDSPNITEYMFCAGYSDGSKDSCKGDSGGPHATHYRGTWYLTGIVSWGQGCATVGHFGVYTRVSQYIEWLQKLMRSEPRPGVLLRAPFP
# Molecular target: T1, recombinant human activated Factor VII …
# Test: BLI (Fortebio)
row,Kd [nM],Binder
1,0.89,"VH SEQ ID NO 538 / VL SEQ ID NO 358 (antibody, IgG4, V domains shown, humanized 11F2; IgG4 S228P/kappa) VH: QVQLQESGPGLVEPSQTLSLTCTVSGYSITSDSAWSWIRQPPGKKLEWIGYIQYSGSTNYNPSLKSRVTISRDTSKNQFSLKLSSVTAADTAVYYCARSVNYYGNSFAVGYWGQGTLVTVSS VL: EIVLTQSPATLSLSPGERATLSCRASQGISDYLHWYQQKPGQAPRLLIKYTSQPATGIPARFSGSGSGTDFTLTISSLEPEDFAVYYCQNGHSFPLTFGQGTKLEIK"
2,6.2,"VH SEQ ID NO 538 / VL SEQ ID NO 366 (antibody, IgG4, V domains shown, humanized 11F2; IgG4 S228P/kappa) VH: QVQLQESGPGLVEPSQTLSLTCTVSGYSITSDSAWSWIRQPPGKKLEWIGYIQYSGSTNYNPSLKSRVTISRDTSKNQFSLKLSSVTAADTAVYYCARSVNYYGNSFAVGYWGQGTLVTVSS VL: EIVLTQSPATLSLSPGERATLSCRASQGLSDYLAWYQQKPGEAPRLLIKYASQPATGIPARFSGSGSGTDFTLTISSLEPEDFAVYYCQNGHSFPLTFGQGTKLEIK"
3,6.1,"VH SEQ ID NO 538 / VL SEQ ID NO 406 (antibody, IgG4, V domains shown, humanized 11F2; IgG4 S228P/kappa) VH: QVQLQESGPGLVEPSQTLSLTCTVSGYSITSDSAWSWIRQPPGKKLEWIGYIQYSGSTNYNPSLKSRVTISRDTSKNQFSLKLSSVTAADTAVYYCARSVNYYGNSFAVGYWGQGTLVTVSS VL: EIVLTQSPATLSLSPGERATLSCRASQGVSDYLAWYQQKPGQAPRLLIKYASQPATGIPARFSGSGSGTDFTLTISSLEPEDFAVYYCQNGHSFPLTFGAGTKLEIK"
4,6.9,"VH SEQ ID NO 538 / VL SEQ ID NO 414 (antibody, IgG4, V domains shown, humanized 11F2; IgG4 S228P/kappa) VH: QVQLQESGPGLVEPSQTLSLTCTVSGYSITSDSAWSWIRQPPGKKLEWIGYIQYSGSTNYNPSLKSRVTISRDTSKNQFSLKLSSVTAADTAVYYCARSVNYYGNSFAVGYWGQGTLVTVSS VL: EIVLTQSPATLSLSPGERATLSCRASQGVSDYLAWYQQKPGQAPRLLIKYASQPATGIPARFSGSGSGTDFTLTISSLEPEDFAVYYCQNGHSFPLTFGQGTKLEIK"
5,8.3,"VH SEQ ID NO 538 / VL SEQ ID NO 438 (antibody, IgG4, V domains shown, humanized 11F2; IgG4 S228P/kappa) VH: QVQLQESGPGLVEPSQTLSLTCTVSGYSITSDSAWSWIRQPPGKKLEWIGYIQYSGSTNYNPSLKSRVTISRDTSKNQFSLKLSSVTAADTAVYYCARSVNYYGNSFAVGYWGQGTLVTVSS VL: EIVLTQSPATLSLSPGERATLSCRASQGVSDYLAWYQQKPGQAPRLLIKYASQPATGIPARFSGSGSGTDFTLTISSLEPEDVAVYYCQNGHSFPLTFGQGTKLEIK"
6,1,"VH SEQ ID NO 538 / VL SEQ ID NO 470 (antibody, IgG4, V domains shown, humanized 11F2; IgG4 S228P/kappa) VH: QVQLQESGPGLVEPSQTLSLTCTVSGYSITSDSAWSWIRQPPGKKLEWIGYIQYSGSTNYNPSLKSRVTISRDTSKNQFSLKLSSVTAADTAVYYCARSVNYYGNSFAVGYWGQGTLVTVSS VL: EIVLTQSPATLSLSPGERATLSCRASQGVSDYLHWYQQKPGQAPRLLIKYASQPATGIPARFSGSGSGTDFTLTISSLEPEDFAVYYCQNGHSFPLTFGQGTKLEIK"
7,0.88,"VH SEQ ID NO 538 / VL SEQ ID NO 502 (antibody, IgG4, V domains shown, humanized 11F2; IgG4 S228P/kappa) VH: QVQLQESGPGLVEPSQTLSLTCTVSGYSITSDSAWSWIRQPPGKKLEWIGYIQYSGSTNYNPSLKSRVTISRDTSKNQFSLKLSSVTAADTAVYYCARSVNYYGNSFAVGYWGQGTLVTVSS VL: EIVLTQSPATLSLSPGERATLSCRASQGVSDYLHWYQQKPGQAPRLLIKYTSQPATGIPARFSGSGSGTDFTLTISSLEPEDFAVYYCQNGHSFPLTFGQGTKLEIK"
8,1,"VH SEQ ID NO 538 / VL SEQ ID NO 486 (antibody, IgG4, V domains shown, humanized 11F2; IgG4 S228P/kappa) VH: QVQLQESGPGLVEPSQTLSLTCTVSGYSITSDSAWSWIRQPPGKKLEWIGYIQYSGSTNYNPSLKSRVTISRDTSKNQFSLKLSSVTAADTAVYYCARSVNYYGNSFAVGYWGQGTLVTVSS VL: EIVLTQSPATLSLSPGERATLSCRASQGVSDYLHWYQQKPGQAPRLLIKYASQPATGIPARFSGSGSGTDFTLTISSLEPEDFGVYYCQNGHSFPLTFGQGTKLEIK"
9,1.1,"VH SEQ ID NO 538 / VL SEQ ID NO 494 (antibody, IgG4, V domains shown, humanized 11F2; IgG4 S228P/kappa) VH: QVQLQESGPGLVEPSQTLSLTCTVSGYSITSDSAWSWIRQPPGKKLEWIGYIQYSGSTNYNPSLKSRVTISRDTSKNQFSLKLSSVTAADTAVYYCARSVNYYGNSFAVGYWGQGTLVTVSS VL: EIVLTQSPATLSLSPGERATLSCRASQGVSDYLHWYQQKPGQAPRLLIKYASQPATGIPARFSGSGSGTDFTLTISSLEPEDVAVYYCQNGHSFPLTFGQGTKLEIK"
10,21,"VH SEQ ID NO 538 / VL SEQ ID NO 422 (antibody, IgG4, V domains shown, humanized 11F2; IgG4 S228P/kappa) VH: QVQLQESGPGLVEPSQTLSLTCTVSGYSITSDSAWSWIRQPPGKKLEWIGYIQYSGSTNYNPSLKSRVTISRDTSKNQFSLKLSSVTAADTAVYYCARSVNYYGNSFAVGYWGQGTLVTVSS VL: EIVLTQSPATLSLSPGERATLSCRASQGVSDYLAWYQQKPGQAPRLLIKYASQPATGIPARFSGSGSGTDFTLTISSLEPEDFAVYYCQQGHSFPLTFGQGTKLEIK"
11,8.3,"VH SEQ ID NO 538 / VL SEQ ID NO 430 (antibody, IgG4, V domains shown, humanized 11F2; IgG4 S228P/kappa) VH: QVQLQESGPGLVEPSQTLSLTCTVSGYSITSDSAWSWIRQPPGKKLEWIGYIQYSGSTNYNPSLKSRVTISRDTSKNQFSLKLSSVTAADTAVYYCARSVNYYGNSFAVGYWGQGTLVTVSS VL: EIVLTQSPATLSLSPGERATLSCRASQGVSDYLAWYQQKPGQAPRLLIKYASQPATGIPARFSGSGSGTDFTLTISSLEPEDFGVYYCQNGHSFPLTFGQGTKLEIK"
12,12,"VH SEQ ID NO 538 / VL SEQ ID NO 446 (antibody, IgG4, V domains shown, humanized 11F2; IgG4 S228P/kappa) VH: QVQLQESGPGLVEPSQTLSLTCTVSGYSITSDSAWSWIRQPPGKKLEWIGYIQYSGSTNYNPSLKSRVTISRDTSKNQFSLKLSSVTAADTAVYYCARSVNYYGNSFAVGYWGQGTLVTVSS VL: EIVLTQSPATLSLSPGERATLSCRASQGVSDYLAWYQQKPGQAPRLLIKYTSQPATGIPARFSGSGSGTDFTLTISSLEPEDFAVYYCQNGHSFPLTFGQGTKLEIK"
13,7.4,"VH SEQ ID NO 538 / VL SEQ ID NO 374 (antibody, IgG4, V domains shown, humanized 11F2; IgG4 S228P/kappa) VH: QVQLQESGPGLVEPSQTLSLTCTVSGYSITSDSAWSWIRQPPGKKLEWIGYIQYSGSTNYNPSLKSRVTISRDTSKNQFSLKLSSVTAADTAVYYCARSVNYYGNSFAVGYWGQGTLVTVSS VL: EIVLTQSPATLSLSPGERATLSCRASQGLSDYLAWYQQKPGQAPRLLIKYTSQPATGIPARFSGSGSGTDFTLTISSLEPEDFAVYYCQNGHSFPLTFGQGTKLEIK"
14,1.2,"VH SEQ ID NO 538 / VL SEQ ID NO 382 (antibody, IgG4, V domains shown, humanized 11F2; IgG4 S228P/kappa) VH: QVQLQESGPGLVEPSQTLSLTCTVSGYSITSDSAWSWIRQPPGKKLEWIGYIQYSGSTNYNPSLKSRVTISRDTSKNQFSLKLSSVTAADTAVYYCARSVNYYGNSFAVGYWGQGTLVTVSS VL: EIVLTQSPATLSLSPGERATLSCRASQGLSDYLHWYQQKPGEAPRLLIKYASQPATGIPARFSGSGSGTDFTLTISSLEPEDFAVYYCQNGHSFPLTFGQGTKLEIK"
15,3.2,"VH SEQ ID NO 546 / VL SEQ ID NO 310 (antibody, IgG4, V domains shown, humanized 11F2; IgG4 S228P/kappa) VH: QVQLQESGPGLVEPSQTLSLTCTVSGYSITSDSAWSWIRQPPGKKLEWIGYIQYSGSTNYNPSLKSRVTISRDTSKNQFSLKLSSVTAADTAVYYCARSVNYYGNSFAVGYWGQGTSVTVSS VL: EIVLTQSPATLSLSPGERATLSCRASQGISDYLAWYQQKPGQAPRLLIKYASQPATGIPARFSGSGSGTDFTLTISSLEPEDFAVYYCQNGHSFPLTFGQGTKLEIK"
16,7,"VH SEQ ID NO 538 / VL SEQ ID NO 390 (antibody, IgG4, V domains shown, humanized 11F2; IgG4 S228P/kappa) VH: QVQLQESGPGLVEPSQTLSLTCTVSGYSITSDSAWSWIRQPPGKKLEWIGYIQYSGSTNYNPSLKSRVTISRDTSKNQFSLKLSSVTAADTAVYYCARSVNYYGNSFAVGYWGQGTLVTVSS VL: EIVLTQSPATLSLSPGERATLSCRASQGVSDYLAWYQQKPGEAPRLLIKYASQPATGIPARFSGSGSGTDFTLTISSLEPEDFAVYYCQNGHSFPLTFGQGTKLEIK"
17,11,"VH SEQ ID NO 538 / VL SEQ ID NO 398 (antibody, IgG4, V domains shown, humanized 11F2; IgG4 S228P/kappa) VH: QVQLQESGPGLVEPSQTLSLTCTVSGYSITSDSAWSWIRQPPGKKLEWIGYIQYSGSTNYNPSLKSRVTISRDTSKNQFSLKLSSVTAADTAVYYCARSVNYYGNSFAVGYWGQGTLVTVSS VL: EIVLTQSPATLSLSPGERATLSCRASQGVSDYLAWYQQKPGEAPRLLIKYTSQPATGIPARFSGSGSGTDFTLTISSLEPEDFAVYYCQNGHSFPLTFGQGTKLEIK"
18,1.8,"VH SEQ ID NO 538 / VL SEQ ID NO 478 (antibody, IgG4, V domains shown, humanized 11F2; IgG4 S228P/kappa) VH: QVQLQESGPGLVEPSQTLSLTCTVSGYSITSDSAWSWIRQPPGKKLEWIGYIQYSGSTNYNPSLKSRVTISRDTSKNQFSLKLSSVTAADTAVYYCARSVNYYGNSFAVGYWGQGTLVTVSS VL: EIVLTQSPATLSLSPGERATLSCRASQGVSDYLHWYQQKPGQAPRLLIKYASQPATGIPARFSGSGSGTDFTLTISSLEPEDFAVYYCQQGHSFPLTFGQGTKLEIK"
19,1.2,"VH SEQ ID NO 538 / VL SEQ ID NO 454 (antibody, IgG4, V domains shown, humanized 11F2; IgG4 S228P/kappa) VH: QVQLQESGPGLVEPSQTLSLTCTVSGYSITSDSAWSWIRQPPGKKLEWIGYIQYSGSTNYNPSLKSRVTISRDTSKNQFSLKLSSVTAADTAVYYCARSVNYYGNSFAVGYWGQGTLVTVSS VL: EIVLTQSPATLSLSPGERATLSCRASQGVSDYLHWYQQKPGEAPRLLIKYASQPATGIPARFSGSGSGTDFTLTISSLEPEDFAVYYCQNGHSFPLTFGQGTKLEIK"
20,1.3,"VH SEQ ID NO 538 / VL SEQ ID NO 462 (antibody, IgG4, V domains shown, humanized 11F2; IgG4 S228P/kappa) VH: QVQLQESGPGLVEPSQTLSLTCTVSGYSITSDSAWSWIRQPPGKKLEWIGYIQYSGSTNYNPSLKSRVTISRDTSKNQFSLKLSSVTAADTAVYYCARSVNYYGNSFAVGYWGQGTLVTVSS VL: EIVLTQSPATLSLSPGERATLSCRASQGVSDYLHWYQQKPGQAPRLLIKYASQPATGIPARFSGSGSGTDFTLTISSLEPEDFAVYYCQNGHSFPLTFGAGTKLEIK"
